Numbering of substitutions follows the chain as printed. Names may count otherwise. Where two headings read alike, the source gives them in different places.
B1: wild-type human GCAP1-E6S (guanylate cyclase-activating protein 1, myristoylated) (natural protein)
chain: MGNVMSGKSVEELSSTECHQWYKKFMTECPSGQLTLYEFRQFFGLKNLSPSASQYVEQMFETFDFNKDGYIDFMEYVAALSLVLKGKVEQKLRWYFKLYDVDGNGCIDRDELLTIIQAIRAINPCSDTTMTAEEFTDTVFSKIDVNGDGELSLEEFIEGVQKDQMLLDTLTRSLDLTRIVRRLQNGEQDEEGADEAAEAAG
modifications: myristoylation on the N-terminal Gly residue
B2: GCAP1 N104K-G105R (guanylate cyclase-activating protein 1, myristoylated, on the E6S background) (natural protein, human, UniProt P43080 1-201, looked up)
chain: B1 chain with N104K, G105R
modifications: myristoylation on the N-terminal Gly residue
notes: cDNA in pET-11a between NdeI and NheI; E6S introduced to allow myristoylation by yeast NMT; N104K and G105R introduced by site-directed mutagenesis; N104K-G105R is the patient's variant; E6S is a change made by people; Myristoylation on the N-terminal Gly implies that the initiator Met is removed (surmised); No tag is mentioned; also called N104K-G105R GCAP1; double mutant; source: E. coli …

Key:
[1] = target: T1, human guanylate cyclase 1 (GC1) (human, UniProt Q02846 52-1103)
T1 sequence (looked up): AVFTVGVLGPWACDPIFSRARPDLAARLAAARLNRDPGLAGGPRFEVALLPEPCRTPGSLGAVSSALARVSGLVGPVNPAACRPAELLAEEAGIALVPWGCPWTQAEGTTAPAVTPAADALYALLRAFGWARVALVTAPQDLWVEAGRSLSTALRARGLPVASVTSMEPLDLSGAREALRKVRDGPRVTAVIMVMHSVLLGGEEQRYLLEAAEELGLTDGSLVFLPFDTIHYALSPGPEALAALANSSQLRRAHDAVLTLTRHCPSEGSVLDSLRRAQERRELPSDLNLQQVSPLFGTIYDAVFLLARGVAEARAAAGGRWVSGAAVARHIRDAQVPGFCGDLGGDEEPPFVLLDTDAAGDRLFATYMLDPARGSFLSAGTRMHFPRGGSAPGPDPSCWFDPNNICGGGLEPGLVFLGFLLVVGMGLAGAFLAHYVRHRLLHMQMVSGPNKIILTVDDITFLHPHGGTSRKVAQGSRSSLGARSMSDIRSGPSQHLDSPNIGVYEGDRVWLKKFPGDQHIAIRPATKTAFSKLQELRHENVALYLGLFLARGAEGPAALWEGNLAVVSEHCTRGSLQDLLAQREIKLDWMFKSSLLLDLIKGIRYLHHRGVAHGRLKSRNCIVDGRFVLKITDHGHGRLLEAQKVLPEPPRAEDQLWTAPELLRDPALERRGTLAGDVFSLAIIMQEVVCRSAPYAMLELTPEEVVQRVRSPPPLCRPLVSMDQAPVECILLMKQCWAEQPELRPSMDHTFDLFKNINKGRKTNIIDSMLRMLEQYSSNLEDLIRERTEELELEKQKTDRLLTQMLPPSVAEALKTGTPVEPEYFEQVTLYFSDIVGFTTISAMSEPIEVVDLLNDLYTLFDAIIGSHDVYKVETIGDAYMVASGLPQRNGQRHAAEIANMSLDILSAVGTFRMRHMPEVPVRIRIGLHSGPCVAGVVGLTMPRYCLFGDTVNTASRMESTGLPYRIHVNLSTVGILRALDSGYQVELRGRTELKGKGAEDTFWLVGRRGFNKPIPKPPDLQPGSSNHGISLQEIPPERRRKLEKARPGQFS

[2] = target: T2, human guanylate cyclase 2 (GC2) (human, UniProt P51841 51-1108)
T2 sequence (looked up): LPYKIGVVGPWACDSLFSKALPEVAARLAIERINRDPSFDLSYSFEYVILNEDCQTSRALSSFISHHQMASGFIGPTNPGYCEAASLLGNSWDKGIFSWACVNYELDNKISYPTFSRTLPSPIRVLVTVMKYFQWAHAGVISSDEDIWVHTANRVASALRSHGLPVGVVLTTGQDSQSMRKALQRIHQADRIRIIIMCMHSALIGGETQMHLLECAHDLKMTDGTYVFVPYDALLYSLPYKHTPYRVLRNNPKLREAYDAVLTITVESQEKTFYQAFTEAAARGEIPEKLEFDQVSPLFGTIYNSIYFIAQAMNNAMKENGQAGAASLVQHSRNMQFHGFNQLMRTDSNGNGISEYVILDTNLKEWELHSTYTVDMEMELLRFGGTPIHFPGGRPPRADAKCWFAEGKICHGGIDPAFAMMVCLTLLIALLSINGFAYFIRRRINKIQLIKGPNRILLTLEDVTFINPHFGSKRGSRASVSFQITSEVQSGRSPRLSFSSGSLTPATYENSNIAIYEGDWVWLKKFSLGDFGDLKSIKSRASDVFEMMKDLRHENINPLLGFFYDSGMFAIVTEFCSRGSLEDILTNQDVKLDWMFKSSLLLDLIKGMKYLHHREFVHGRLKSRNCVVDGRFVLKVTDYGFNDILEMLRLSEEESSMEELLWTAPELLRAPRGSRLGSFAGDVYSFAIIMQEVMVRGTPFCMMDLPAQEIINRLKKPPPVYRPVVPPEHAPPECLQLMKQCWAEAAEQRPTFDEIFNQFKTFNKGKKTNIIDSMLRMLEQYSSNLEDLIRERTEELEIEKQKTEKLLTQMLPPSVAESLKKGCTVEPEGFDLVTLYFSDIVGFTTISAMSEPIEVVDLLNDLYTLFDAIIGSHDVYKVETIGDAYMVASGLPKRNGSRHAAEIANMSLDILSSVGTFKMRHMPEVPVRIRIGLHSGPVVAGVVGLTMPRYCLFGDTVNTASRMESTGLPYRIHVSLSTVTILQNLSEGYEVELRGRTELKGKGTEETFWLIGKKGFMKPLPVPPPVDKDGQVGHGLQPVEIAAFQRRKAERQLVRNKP

[3] = target: T1, human guanylate cyclase 1 (GC1); experiment: cell-based or functional assay
[4] = target: T2, human guanylate cyclase 2 (GC2); experiment: cell-based or functional assay
[5] = target: the molecule itself; experiment: SEC; analytical SEC on Superose 12 10/300 GL; 42 µM protein, 200 µl injected; 20 mM Tris-HCl pH 7.5, 150 mM KCl, 1 mM DTT; with 500 µM EGTA + 1 mM Mg2+ or 500 µM Ca2+ + 1 mM Mg2+; apparent molecular mass from a calibration curve

Binder	X-fold of Ca2+-dependent regulation of GC1 (cGMP synthesis by HEK293 membranes with 5 µM GCAP1, low Ca2+ <19 nM against high Ca2+ ~30 µM) [1]	X-fold of Ca2+-dependent regulation of GC2 (cGMP synthesis by HEK293 membranes with 5 µM GCAP1, low Ca2+ <19 nM against high Ca2+ ~30 µM) [2]	X-fold of Ca2+-dependent regulation of GC1 (cGMP synthesis by HEK293 membranes with 5 µM GCAP1, low Ca2+ <19 nM against high Ca2+ ~30 µM) [3]	X-fold of Ca2+-dependent regulation of GC2 (cGMP synthesis by HEK293 membranes with 5 µM GCAP1, low Ca2+ <19 nM against high Ca2+ ~30 µM) [4]	stoichiometry N [5]
B1	37.4	10.8	–	–	–
B2	–	–	0.47	0.6	2

From PMC8070792, “Impaired Ca^2+ Sensitivity of a Novel GCAP1 Variant Causes Cone Dystrophy and Leads to Abnormal Synaptic Transmission Between Photoreceptors and Bipolar Cells” (International Journal of Molecular Sciences, 2021)
